From US6905818 (MAX PLANCK GESELLSCHAFT ZUR FORDERUNGDER WISSENSCHAFTEN, dated 2005)

Target: T1, LexA protein expressed from pBTM117c (UniProt P0A7C2 1-202)
T1 construct: range 1-220; also called strain x1a
T1 sequence (looked up): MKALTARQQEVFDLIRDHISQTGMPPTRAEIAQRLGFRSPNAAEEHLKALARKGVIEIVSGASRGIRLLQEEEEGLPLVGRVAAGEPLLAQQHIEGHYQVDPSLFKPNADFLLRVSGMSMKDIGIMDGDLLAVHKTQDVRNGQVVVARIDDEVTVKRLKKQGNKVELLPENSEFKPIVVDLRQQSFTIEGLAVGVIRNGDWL
Experiment: yeast two-hybrid, growth on SD-leu-trp-his and β-galactosidase membrane assay
Method: Two transformants from each transformation were investigated for the presence of protein—protein interactions by testing the ability of the yeast cells to grow on SD-leu-trp, SD-leu-trp-his, SD-leu+CAN and SD-trp+CHX plates and by the β-galactosidase membrane assay (Breeden and Nasmyth, 1985). […] After selection of the yeast strains harboring the different combinations of the two-hybrid plasmids on SD-leu+CAN and SD-trp+CHX the resulting strains were also analyzed by the β-galactosidase assay. After incubating the membrane containing all three strains on SD-trp+CHX medium only progeny of the yeast strain that originally harbored both the plasmids pBTM117c-HIP1 & pGAD427 yet which had lost the pGAD427 plasmid through counterselection turned blue after incubating in X-Gal solution. […] In comparison, the yeast strain harboring both the plasmids pBTM117c-SIM1 & pGAD427-ARNT is a positive clone that expresses interacting LexA and GAL4ad fusion proteins, because both the LexA and the Gal4ad fusion proteins are necessary for the activation of the reporter genes. […] With the membranes from the SD-leu+CAN plate false positive clones expressing an auto-activating GAL4ad-LexA fusion protein were also detected by the β-galactosidase assay.

binding result: no binding
B1: GAL4ad expressed from pGAD427 (other, yeast, UniProt P04386 768-881, looked up)
chain: ANFNQSGNIADSSLSFTFTNSSNGPNLITTQTNSQALSQPIASSNVHDNFMNNEITASKIDDGNNSKPLSPGWTDQTAYNAFGITTGMFNTTTMDDVYNYLFDDEDTPPNPKKE
notes: range 768-881; also called strain y1α
